Measured values: US7176293

How the values were obtained:
[1] = molecular target: E2 ubiquitin-conjugating enzyme Ubch8, O14933
[2] = molecular target: E2 ubiquitin-conjugating enzyme UbchD2, P62837
Sequence of E2 ubiquitin-conjugating enzyme UbchD2, P62837 (P62837 whole entry, looked up): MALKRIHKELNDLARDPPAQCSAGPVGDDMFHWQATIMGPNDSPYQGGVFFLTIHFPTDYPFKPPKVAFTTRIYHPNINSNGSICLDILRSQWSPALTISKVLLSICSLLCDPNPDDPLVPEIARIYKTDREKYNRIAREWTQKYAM

Sequence of E2 ubiquitin-conjugating enzyme Ubch8, O14933 (O14933 whole entry): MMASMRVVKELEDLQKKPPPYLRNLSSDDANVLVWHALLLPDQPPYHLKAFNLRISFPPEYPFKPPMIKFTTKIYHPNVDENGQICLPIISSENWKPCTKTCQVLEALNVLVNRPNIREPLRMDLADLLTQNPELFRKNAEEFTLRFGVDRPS

B1: GST-Chfr (glutathione S-transferase fused to the N-terminus of full-length human Chfr) (protein)
chain: MERPEEGKQSPPPQPWGRLLRLGAEEGEPHVLLRKREWTIGRRRGCDLSFPSNKLVSGDHCRIVVDEKSGQVTLEDTSTSGTVINKLKVVKKQTCPLQTGDVIYLVYRKNEPEHNVAYLYESLSEKQGMTQESFEANKENVFHGTKDTSGAGAGRGADPRVPPSSPATQVCFEEPQPSTSTSDLFPTASASSTEPSPAGRERSSSCGSGGGGISPKGSGPSVASDEVSSFASALPDRKTASFSSLEPQDQEDLEPVKKKMRGDGDLDLNGQLLVAQPRRNAQTVHEDVRAAAGKPDKMEETLTCIICQDLLHDCVSLQPCMHTFCAACYSGWMERSSLCPTCRCPVERICKNHILNNLVEAYLIQHPDKSRSEEDVQSMDARNKITQDMLQPKVRRSFSDEEGSSEDLLELSDVDSESSDISQPYVVCRQCPEYRRQAAQPPHCPAPEGEPGAPQALGDAPSTSVSLTTAVQDYVCPLQGSHALCTCCFQPMPDRRAEREQDPRVAPQQCAVCLQPFCHLYWGCTRTGCYGCLAPFCELNLGDKCLDGVLNNNSYESDILKNYLATRGLTWKNMLTESLVALQRGVFLLSDYRVTGDTVLCYCCGLRSFRELTYQYRQNIPASELPVAVTSRPDCYWGRNCRTQVKAHHAMKFNHICEQTRFKN
For B1, the “ubiquitin-protein ligase activity in vitro (ubiquitination of GST-Chfr, anti-ubiquitin immunoblot)” value [1] was “did not function in this assay” and the “ubiquitin-protein ligase activity in vitro (ubiquitination of GST-Chfr, anti-ubiquitin immunoblot)” value [2] was “supported the ubiquitin-protein ligase activity of Chfr”.
